B1: GluA2_(C589A-Thr) K663C (receptor, rat)
chain: VSSNSIQIGGLFPRGADQEYSAFRVGMVQFSTSEFRLTPHIDNLEVANSFAVTNAFCSQFSRGVYAIFGFYDKKSVNTITSFCGTLHVSFITPSFPTDGTHPFVIQMRPDLKGALLSLIEYYQWDKFAYLYDSDRGLSTLQAVLDSAAEKKWQVTAINVGNINNDKKDETYRSLFQDLELKKERRVILDCERDKVNDIVDQVITIGKHVKGYHYIIANLGFTDGDLLKIQFGGANVSGFQIVDYDDSLVSKFIERWSTLEEKEYPGAHTATIKYTSALTYDAVQVMTEAFRNLRKQRIEISRRGNAGDCLANPAVPWGQGVEIERALKQVQVEGLSGNIKFDQNGKRINYTINIMELKTNGPRKIGYWSEVDKMVVTLTELPSGNDTSGLENKTVVVTTILESPYVMMKKNHEMLEGNERYEGYCVDLAAEIAKHCGFKYKLTIVGDGKYGARDADTKIWNGMVGELVYGKADIAIAPLTITLVREEVIDFSKPFMSLGISIMIKKPQKSKPGVFSFLDPLAYEIWMCIVFAYIGVSVVLFLVSRFSPYEWHTEEFEDGRETQSSESTNEFGIFNSLWFSLGAFMQQGADISPRSLSGRIVGGVWWFFTLIIISSYTANLAAFLTVERMVSPIESAEDLSKQTEIAYGTLDSGSTKEFFRRSCIAVFDKMWTYMRSAEPSVFVRTTAEGVARVRKSKGKYAYLLESTMNEYIEQRKPCDTMKVGGNLDSKGYGIATPKGSSLGTPVNLAVLKLSEQGVLDKLKNKWWYDKGECGAKDSGSKEKTSALSLSNVAGVFYILVGGLGLAMLVALIEFCYKSRAEAKRMKVAKNPQNINPSSSQNSQNFATYKEGYNVYGIESVKIGLVPR
notes: signal peptide in the construct; AMPA receptor subunit GluA2, flip form (GluA2i), rat, NP_058957, full length including the native signal peptide; extra residues left from the thrombin cleavage site at the distal C-terminus after digestion; Single cysteine substitution in m1, LBD dimer-dimer interface; source: HEK293 GnTI- cells, baculovirus-transduced (BacMam), purified (streptactin resin, …)
B2: GluA2_(C589A-Thr) A621C (receptor, rat)
chain: VSSNSIQIGGLFPRGADQEYSAFRVGMVQFSTSEFRLTPHIDNLEVANSFAVTNAFCSQFSRGVYAIFGFYDKKSVNTITSFCGTLHVSFITPSFPTDGTHPFVIQMRPDLKGALLSLIEYYQWDKFAYLYDSDRGLSTLQAVLDSAAEKKWQVTAINVGNINNDKKDETYRSLFQDLELKKERRVILDCERDKVNDIVDQVITIGKHVKGYHYIIANLGFTDGDLLKIQFGGANVSGFQIVDYDDSLVSKFIERWSTLEEKEYPGAHTATIKYTSALTYDAVQVMTEAFRNLRKQRIEISRRGNAGDCLANPAVPWGQGVEIERALKQVQVEGLSGNIKFDQNGKRINYTINIMELKTNGPRKIGYWSEVDKMVVTLTELPSGNDTSGLENKTVVVTTILESPYVMMKKNHEMLEGNERYEGYCVDLAAEIAKHCGFKYKLTIVGDGKYGARDADTKIWNGMVGELVYGKADIAIAPLTITLVREEVIDFSKPFMSLGISIMIKKPQKSKPGVFSFLDPLAYEIWMCIVFAYIGVSVVLFLVSRFSPYEWHTEEFEDGRETQSSESTNEFGIFNSLWFSLGAFMQQGADISPRSLSGRIVGGVWWFFTLIIISSYTANLCAFLTVERMVSPIESAEDLSKQTEIAYGTLDSGSTKEFFRRSKIAVFDKMWTYMRSAEPSVFVRTTAEGVARVRKSKGKYAYLLESTMNEYIEQRKPCDTMKVGGNLDSKGYGIATPKGSSLGTPVNLAVLKLSEQGVLDKLKNKWWYDKGECGAKDSGSKEKTSALSLSNVAGVFYILVGGLGLAMLVALIEFCYKSRAEAKRMKVAKNPQNINPSSSQNSQNFATYKEGYNVYGIESVKIGLVPR
notes: signal peptide in the construct; AMPA receptor subunit GluA2, flip form (GluA2i), rat, NP_058957, full length including the native signal peptide; extra residues left from the thrombin cleavage site at the distal C-terminus after digestion; source: HEK293 GnTI- cells, baculovirus-transduced (BacMam), purified (streptactin resin, thrombin digestion, SEC Superose 6); not shown: eGFP, C-terminal, …
B3: GluA2_(C589A-Thr) A665C (receptor, rat)
chain: VSSNSIQIGGLFPRGADQEYSAFRVGMVQFSTSEFRLTPHIDNLEVANSFAVTNAFCSQFSRGVYAIFGFYDKKSVNTITSFCGTLHVSFITPSFPTDGTHPFVIQMRPDLKGALLSLIEYYQWDKFAYLYDSDRGLSTLQAVLDSAAEKKWQVTAINVGNINNDKKDETYRSLFQDLELKKERRVILDCERDKVNDIVDQVITIGKHVKGYHYIIANLGFTDGDLLKIQFGGANVSGFQIVDYDDSLVSKFIERWSTLEEKEYPGAHTATIKYTSALTYDAVQVMTEAFRNLRKQRIEISRRGNAGDCLANPAVPWGQGVEIERALKQVQVEGLSGNIKFDQNGKRINYTINIMELKTNGPRKIGYWSEVDKMVVTLTELPSGNDTSGLENKTVVVTTILESPYVMMKKNHEMLEGNERYEGYCVDLAAEIAKHCGFKYKLTIVGDGKYGARDADTKIWNGMVGELVYGKADIAIAPLTITLVREEVIDFSKPFMSLGISIMIKKPQKSKPGVFSFLDPLAYEIWMCIVFAYIGVSVVLFLVSRFSPYEWHTEEFEDGRETQSSESTNEFGIFNSLWFSLGAFMQQGADISPRSLSGRIVGGVWWFFTLIIISSYTANLAAFLTVERMVSPIESAEDLSKQTEIAYGTLDSGSTKEFFRRSKICVFDKMWTYMRSAEPSVFVRTTAEGVARVRKSKGKYAYLLESTMNEYIEQRKPCDTMKVGGNLDSKGYGIATPKGSSLGTPVNLAVLKLSEQGVLDKLKNKWWYDKGECGAKDSGSKEKTSALSLSNVAGVFYILVGGLGLAMLVALIEFCYKSRAEAKRMKVAKNPQNINPSSSQNSQNFATYKEGYNVYGIESVKIGLVPR
notes: as for B1
B4: GluA2_(C589A-Thr) R628C (receptor, rat)
chain: VSSNSIQIGGLFPRGADQEYSAFRVGMVQFSTSEFRLTPHIDNLEVANSFAVTNAFCSQFSRGVYAIFGFYDKKSVNTITSFCGTLHVSFITPSFPTDGTHPFVIQMRPDLKGALLSLIEYYQWDKFAYLYDSDRGLSTLQAVLDSAAEKKWQVTAINVGNINNDKKDETYRSLFQDLELKKERRVILDCERDKVNDIVDQVITIGKHVKGYHYIIANLGFTDGDLLKIQFGGANVSGFQIVDYDDSLVSKFIERWSTLEEKEYPGAHTATIKYTSALTYDAVQVMTEAFRNLRKQRIEISRRGNAGDCLANPAVPWGQGVEIERALKQVQVEGLSGNIKFDQNGKRINYTINIMELKTNGPRKIGYWSEVDKMVVTLTELPSGNDTSGLENKTVVVTTILESPYVMMKKNHEMLEGNERYEGYCVDLAAEIAKHCGFKYKLTIVGDGKYGARDADTKIWNGMVGELVYGKADIAIAPLTITLVREEVIDFSKPFMSLGISIMIKKPQKSKPGVFSFLDPLAYEIWMCIVFAYIGVSVVLFLVSRFSPYEWHTEEFEDGRETQSSESTNEFGIFNSLWFSLGAFMQQGADISPRSLSGRIVGGVWWFFTLIIISSYTANLAAFLTVECMVSPIESAEDLSKQTEIAYGTLDSGSTKEFFRRSKIAVFDKMWTYMRSAEPSVFVRTTAEGVARVRKSKGKYAYLLESTMNEYIEQRKPCDTMKVGGNLDSKGYGIATPKGSSLGTPVNLAVLKLSEQGVLDKLKNKWWYDKGECGAKDSGSKEKTSALSLSNVAGVFYILVGGLGLAMLVALIEFCYKSRAEAKRMKVAKNPQNINPSSSQNSQNFATYKEGYNVYGIESVKIGLVPR
notes: signal peptide in the construct; AMPA receptor subunit GluA2, flip form (GluA2i), rat, NP_058957, full length including the native signal peptide; extra residues left from the thrombin cleavage site at the distal C-terminus after digestion; Single cysteine substitution in m1, LBD-TMD linker region (M3-S2 linker); source: HEK293 GnTI- cells, baculovirus-transduced (BacMam), purified (streptactin …)
B5: GluA2_(C589A-Thr) (receptor, rat)
chain: VSSNSIQIGGLFPRGADQEYSAFRVGMVQFSTSEFRLTPHIDNLEVANSFAVTNAFCSQFSRGVYAIFGFYDKKSVNTITSFCGTLHVSFITPSFPTDGTHPFVIQMRPDLKGALLSLIEYYQWDKFAYLYDSDRGLSTLQAVLDSAAEKKWQVTAINVGNINNDKKDETYRSLFQDLELKKERRVILDCERDKVNDIVDQVITIGKHVKGYHYIIANLGFTDGDLLKIQFGGANVSGFQIVDYDDSLVSKFIERWSTLEEKEYPGAHTATIKYTSALTYDAVQVMTEAFRNLRKQRIEISRRGNAGDCLANPAVPWGQGVEIERALKQVQVEGLSGNIKFDQNGKRINYTINIMELKTNGPRKIGYWSEVDKMVVTLTELPSGNDTSGLENKTVVVTTILESPYVMMKKNHEMLEGNERYEGYCVDLAAEIAKHCGFKYKLTIVGDGKYGARDADTKIWNGMVGELVYGKADIAIAPLTITLVREEVIDFSKPFMSLGISIMIKKPQKSKPGVFSFLDPLAYEIWMCIVFAYIGVSVVLFLVSRFSPYEWHTEEFEDGRETQSSESTNEFGIFNSLWFSLGAFMQQGADISPRSLSGRIVGGVWWFFTLIIISSYTANLAAFLTVERMVSPIESAEDLSKQTEIAYGTLDSGSTKEFFRRSKIAVFDKMWTYMRSAEPSVFVRTTAEGVARVRKSKGKYAYLLESTMNEYIEQRKPCDTMKVGGNLDSKGYGIATPKGSSLGTPVNLAVLKLSEQGVLDKLKNKWWYDKGECGAKDSGSKEKTSALSLSNVAGVFYILVGGLGLAMLVALIEFCYKSRAEAKRMKVAKNPQNINPSSSQNSQNFATYKEGYNVYGIESVKIGLVPR
notes: signal peptide in the construct; AMPA receptor subunit GluA2 (GluRB, GluR2), flip form (GluA2i), rat, NP_058957, full length including the native signal peptide; extra residues left from the thrombin cleavage site (GLVPRG) at the distal C-terminus after digestion; Tetrameric membrane protein in C12M detergent with lipid; Purified under reducing conditions; also called WT; parent; source: HEK293 …
B6: GluA2_(C589A-Thr) I664C (receptor, rat)
chain: VSSNSIQIGGLFPRGADQEYSAFRVGMVQFSTSEFRLTPHIDNLEVANSFAVTNAFCSQFSRGVYAIFGFYDKKSVNTITSFCGTLHVSFITPSFPTDGTHPFVIQMRPDLKGALLSLIEYYQWDKFAYLYDSDRGLSTLQAVLDSAAEKKWQVTAINVGNINNDKKDETYRSLFQDLELKKERRVILDCERDKVNDIVDQVITIGKHVKGYHYIIANLGFTDGDLLKIQFGGANVSGFQIVDYDDSLVSKFIERWSTLEEKEYPGAHTATIKYTSALTYDAVQVMTEAFRNLRKQRIEISRRGNAGDCLANPAVPWGQGVEIERALKQVQVEGLSGNIKFDQNGKRINYTINIMELKTNGPRKIGYWSEVDKMVVTLTELPSGNDTSGLENKTVVVTTILESPYVMMKKNHEMLEGNERYEGYCVDLAAEIAKHCGFKYKLTIVGDGKYGARDADTKIWNGMVGELVYGKADIAIAPLTITLVREEVIDFSKPFMSLGISIMIKKPQKSKPGVFSFLDPLAYEIWMCIVFAYIGVSVVLFLVSRFSPYEWHTEEFEDGRETQSSESTNEFGIFNSLWFSLGAFMQQGADISPRSLSGRIVGGVWWFFTLIIISSYTANLAAFLTVERMVSPIESAEDLSKQTEIAYGTLDSGSTKEFFRRSKCAVFDKMWTYMRSAEPSVFVRTTAEGVARVRKSKGKYAYLLESTMNEYIEQRKPCDTMKVGGNLDSKGYGIATPKGSSLGTPVNLAVLKLSEQGVLDKLKNKWWYDKGECGAKDSGSKEKTSALSLSNVAGVFYILVGGLGLAMLVALIEFCYKSRAEAKRMKVAKNPQNINPSSSQNSQNFATYKEGYNVYGIESVKIGLVPR
notes: as for B1

What was measured:
Assay in all cases: SEC; FSEC of ~10% of the protein dialysed into non-reducing buffers with the various ligands; 150 mM NaCl, 20 mM Tris-HCl pH 8.0, 1 mM C12M, lipid
[1] = biological target: GluA2_(C589A-Thr) G212C (rat)
[2] = biological target: GluA2_(C589A-Thr) I209C (rat)
[3] = biological target: GluA2_(C589A-Thr) V215C (rat)
[4] = biological target: GluA2_(C589A-Thr) I211C (rat)
[5] = biological target: the molecule itself

Molecule	stoichiometry N [5]	other results
GluA2_(C589A-Thr) G212C (receptor)	–	stoichiometry N [1]: 4
GluA2_(C589A-Thr) I209C (receptor)	–	stoichiometry N [2]: 4
GluA2_(C589A-Thr) V215C (receptor)	–	stoichiometry N [3]: 4
GluA2_(C589A-Thr) I211C (receptor)	–	stoichiometry N [4]: 4
B1	4	–
B2	4	–
B3	4	–
B4	4	–
B5	4	–
B6	4	–

Reference: PMC4703952, “Probing Intersubunit Interfaces in AMPA-subtype Ionotropic Glutamate Receptors” (Scientific Reports, 2016)
